Experiments:
[1] = MTD / toxicology study E3826-U1802 in naïve Balb/c mice (hematology, histopathology, organ weight, cytokines); format: in vivo; details: mouse, in vivo
Procedure: A dose ranging study of P65_30kD was conducted in naïve female Balb/c mice at Crown Biosciences, Inc. (San Diego, Calif.). […] Blood samples were drawn via sub mandibular vein at 8 time points (0.25, 1, 4, 12, 24, 34, 48 & 72 h).
A major of toxicity associated with high-dose aldesleukin is vascular leak syndrome and associated Cytokine Release Syndrome (CRS). […] The analysis performed was hematology, histopathology, organ weight, and cytokine analyses.

[2] = PK/PD in cynomolgus monkeys, Study No. 20157276; details: cynomolgus monkey, 0.3 mg/kg single IV
Procedure: The study was conducted at Charles River Laboratories, Inc. (Reno, Nev.) and PK data analysis was performed at NW Solutions (Seattle, Wash.). […] Both plasma and blood cells were collected for PK and PD analyses. Selected time points were used for PK, PD, cell population and hematology analysis.

[3] = PK study E3826-U1704 in naïve C57BL/6 mice (human IL-2 ELISA of plasma); format: in vivo
Procedure: Terminal blood samples were collected via cardiac puncture at the points indicated. […] Plasma and blood cells (in both studies) and tumors in study E3826-U1803 were collected for PK and PD analyses.
Bioanalysis of plasma samples was performed using a qualified human IL-2 ELISA assay (Abcam, Cambridge, UK). Concentrations of Aldesleukin, E62_30kD and P65_30kD and the internal standard in samples derived from plasma were determined using an ELISA assay. […] The PK data were imported into Phoenix WinNonlin v6.4 (Certara/Pharsight, Princeton, N.J.) for analysis. The group mean plasma concentration versus time data were analyzed with noncompartmental methods using an IV bolus administration model.

Treg cells = test: pSTAT5 concentration-response in human LRS-derived PBMC samples (flow cytometry): Treg cells; format: cell-based; details: Table 4; ratio of pSTAT5 EC50 values
Procedure: These studies were performed at PrimityBio LLC (Fremont, Calif.). […] Staining panel for flow cytometry study of LRS-derived PBMC samples include markers for Effector T cells (Teff: CD3+, CD4+, CD8+, CD127+), NK cells (CD3-, CD16+), and Regulatory T cells (Treg: CD3+, CD4+, CD8-, IL-2Rα+, CD127-1).
The EC50 values (pg/mL) was calculated from dose response curves generated from MFI plots.
These studies were performed at PrimityBio LLC (Fremont, Calif.). […] Staining panel for flow cytometry study of LRS-derived PBMC samples include markers CD4, CD4+ memory central, CD4+ memory effect, CD4+ memory T cells, CD4+ Naive T cells, CD4+ T cells, CD8, CD8+ memory central, CD8+ memory effect, CD8+ memory T cells, CD8+ Naive T cells, CD8+ T cells, NK cells, and T regulatory cells.
Conjugates of Table 12 were synthesized by modification of SEQ NO. 1. These studies were performed at PrimityBio LLC (Fremont, Calif.).
The EC50 values (pg/ml) were calculated from dose response curves generated from the MFI plots.

[4] = C57BL/6 female mice, single IV bolus 0.3 mg/kg, E62_5 kD from a separate study

P65_30kD: SEQ ID NO: 25: IL-2 (SEQ ID NO: 4) with P65 replaced by AzK click-conjugated to methoxy linear 30 kDa PEG [Compound P65_30kD]
systemic levels of IFNγ [1]: transient elevation | AUC0-t, Animal 2705 [2]: 120 µg·h/mL | AUC0-t, Mean [2]: 121 µg·h/mL | CL, Animal 2699 [2]: 2.47 mL/h/kg | CL, Animal 2705 [2]: 2.49 mL/h/kg | CL, Mean [2]: 2.48 mL/h/kg | Cmax, Animal 2699 [2]: 11000 ng/mL | Cmax, Animal 2705 [2]: 11400 ng/mL | Cmax, Mean [2]: 11200 ng/mL | Tmax, Animal 2699 [2]: 30 min | Tmax, Animal 2705 [2]: 30 min | Vss, Animal 2699 [2]: 0.029 L/kg | Vss, Animal 2705 [2]: 0.0321 L/kg | Vss, Mean [2]: 0.0305 L/kg | mean plasma concentrations measurable out to (post-dose) [2]: 168 h | Tmax, Mean ([2]; 0.3 mg/kg): 30 min | fold extended t1/2 compared to aldesleukin ([3]; 0.3 mg/kg IV): 23 fold | fold reduced CL compared to aldesleukin ([3]; 0.3 mg/kg IV): about 198 fold | AUC0-t [3, 4]: 45,600 h*ng/mL | AUCINF [3, 4]: 45,600 h*ng/mL | CL [3, 4]: 6.58 mL/h/kg | Cmax [3, 4]: 4,870 ng/mL | Tmax [3, 4]: 1.8 min | Vss (distribution volume) [3, 4]: 0.0824 L/kg | t½ [3, 4]: 798 min | mean plasma concentrations measurable out to (post-dose) ([3]; single IV bolus, 120 h = last measured time point): 120 h | CD8/Treg ratio (Treg cells): 2.8
